Results on 32 molecules are retold here after patent publication US20260242478A1 (published 2026).

Values joined by “and” are separate entries in the source; they are usually repeats but may differ in a detail not shown here. Equal entries are not always repeated. Where two headings read alike, the source gives them in different places. Where no end group is shown, it is not given here. Bounds are passed on as bounds.

Assay [1] has as its target T1, PSMA Fab (SEQ ID NOs: 19, 20).
T1 construct: also called 006 PSMA Fab; anti-PSMA Fab
The assay can be described thus: competition ELISA, peptide titrated against 0.3 nM PSMA Fab on captured biotinylated PSMA. On the technique in general: ELISA stands for enzyme-linked immunosorbent assay.

Assay [2] has the same target. Described as above. This is another data set of the same source.
The target of assay [3] is Ab-15. The assay can be described thus: BLI (Octet): sensor loaded with 200 nM biotinylated peptide, 100 nM Ab-15. (In general: Biolayer interferometry detects binding as a change in optical thickness at a sensor tip.)
For assay [4], the target named is Ab-15. Description: binding ELISA: biotinylated peptide on neutravidin plate, Ab-15 titrated.
The target in assay [5] is Ab-15. The assay can be described thus: competition ELISA: peptide titrated against 1 nM Ab-15; competitor plate-bound CD28.
Assay [6] concerns the target T1, PSMA Fab (SEQ ID NOs: 19, 20). The assay can be described thus: competition ELISA, peptide titrated against 0.3 nM PSMA Fab on captured biotinylated PSMA. The source holds these as a separate data set.
In assay [7] the target is T2, PSMA Fab (Fab biotinylated for capture on neutravidin plates (site not given)).
T2 construct: also called Anti-PSMA Fab; 006 PSMA Fab
The assay can be described thus: phage ELISA: biotinylated PSMA Fab on neutravidin plate, clonal phage supernatant, anti-M13 HRP; blocking buffer alone.

For assay [8], the target named is T2, PSMA Fab. Description: phage ELISA: biotinylated PSMA Fab on neutravidin plate, clonal phage supernatant, anti-M13 HRP; wells pre-incubated with PSMA antigen as competitor.
Assay [9] has as its target T3, anti-CD28 scFv.
T3 construct: also called Anti-CD28 scFv (VH - linker 1 - VL)
The assay can be described thus: BLI (Octet RED96): biotinylated peptide on streptavidin sensor, anti-CD28 scFv at 100-12.5 nM, 1:1 model.

Assay [10] addresses anti-CD28 Fab. Description: competition ELISA: peptide titrated (0-100 µM) with 1 nM anti-CD28 Fab, binding to plate-bound CD28.
Assay [11] deals with T4, anti-CD28 scFv (disulfide).
T4 construct: also called Anti-CD28 scFv (VH - linker 1 - VL) Disulfide mutation: G44C, G235C
Description: competition ELISA: peptide titrated (0-100 µM) with 0.3 nM anti-CD28 scFv (disulfide), binding to plate-bound CD28.

Assay [12] addresses T5, anti-CD28 scFv (disulfide).
T5 construct: also called Anti-CD28 scFv (VH - linker 1 - VL) Disulfide mutation: G44C, G235C
The assay can be described thus: competition ELISA, peptide titrated 0-100 uM against 0.3 nM anti-CD28 scFv (disulfide), plate-bound CD28 as competitor.

In assay [13] the target is anti-CD28 Fab. Description: competition ELISA, peptide titrated 0-100 uM against 1 nM anti-CD28 Fab, plate-bound CD28 as competitor.
Assay [14] deals with anti-CD28 Fab. The description is as above. This is another data set of the same source.
Assay [15] deals with anti-CD28 Fab. Described as above. This is another data set of the same source.
The target in assay [16] is anti-CD28 Fab. Description: BLI (Octet): biotinylated peptide on streptavidin sensor, anti-CD28 Fab titrated in solution, 1:1 model.
Assay [17] concerns the target anti-CD28 Fab. The assay can be described thus: competition ELISA: peptide titrated (0-100 µM) with 1 nM anti-CD28 Fab, binding to plate-bound CD28. This is another data set of the same source.

B1: Peptide-179 (peptide)
peptide: LMKWCTPRWMCAAE
modifications: cysteine pairing not given here; also: biotinylated (site not given here)
notes: PSMA peptide mask (P2)
Usually IC50 stands for the concentration that inhibits the measured activity by half. B1: the 50% inhibitory concentration (IC50) in [1] worked out at 4.44 µM; in assay [2] it was 4.6 µM.

B2: Peptide-74 (peptide)
peptide: IYWCPIDRWNDCYN
modifications: cysteine pairing not given here; also: biotinylated, site not given here
notes: CD28 peptide mask
Usually EC50 stands for the midpoint of the concentration-response curve. A higher EC50 goes with weaker potency. Take B2: in [3], the “Octet signal (200 nM peptide)” value was found to be 0.705. The molecule further gave an EC50 in assay [4] of 0.0076 µM. In assay [5], this molecule showed a concentration for half-maximal inhibition (IC50) of 0.41 µM.

B3: Peptide-178 (peptide)
peptide: PDCVYHSFWGYSCR
modifications: cysteine pairing not given here; also: biotinylated (site not given here)
notes: PSMA peptide mask (P2)
As for B3, the 50% inhibitory concentration (IC50) in assay [6] was determined as 20.8 µM.

B4: Peptide-166 (peptide)
peptide: PLCGTEEVWWECRL
modifications: cysteine pairing not given here; also: biotinylated (site not given here)
notes: PSMA peptide mask (P2)
Molecule B4 yielded an IC50 in assay [6] of 19.2 µM.

B5: Peptide-188 (peptide)
peptide: IECAYMTDQRFWCW
modifications: cysteine pairing not given here; also: biotinylated (site not given here)
notes: PSMA peptide mask (P2)
Consider B5, for which, in [1], the IC50 worked out at 7.22 µM.

B6: Phage-4012 (peptide, not shown: large carriers)
peptide: MRSVCVPSWMCSGF
notes: Clonal phage of the Peptide-180 library
In the case of B6, the “phage binding ELISA signal” value in [7] was found to be 0.422; in [8], 0.176.

B7: Phage-4013 (peptide, not shown: large carriers)
peptide: APRMCSPPWMCYEL
notes: as for B6
As for B7, the “phage binding ELISA signal” value in assay [7] is 0.416; in [8], 0.0661.

B8: Peptide-12 (peptide)
peptide: GYCHYWGDMVMWCG
modifications: cysteine pairing not given here; also: biotinylated, site not given here
By Kd is commonly meant the equilibrium constant for the complex coming apart. Broadly, the koff is the first-order rate constant of dissociation. A low value points to a long-lived complex. The kon is the second-order rate constant of association. A higher kon goes with fast association. In [9], B8 gave a Kd of 0.017 µM, a dissociation rate constant (koff) of 0.00167 s⁻¹ and an association rate constant (kon) of 98700 M⁻¹ s⁻¹.

B9: Peptide-92 (peptide)
peptide: SCAAGASYAWPYCL
On to B9, for which, in assay [10], the IC50 was determined as 7.89 µM.

B10: Peptide-99 (peptide)
peptide: ACAAGASYAWPYCL
Consider B10, for which the IC50 in assay [11] came out at 67 µM; in assay [10] it was 21 µM.

B11: Peptide-106 (peptide)
peptide: SCAAGASYAWPYCA
With B11, in assay [10], the concentration for half-maximal inhibition (IC50) came out at 76.4 µM.

B12: Peptide-101 (peptide)
peptide: SCAAGAAYAWPYCL
Turning to B12, the concentration for half-maximal inhibition (IC50) amounted to 36.2 µM in assay [11] and 7.42 µM in [10].

B13: Peptide-105 (peptide)
peptide: SCAAGASYAWPACL
Take B13: the IC50 in assay [11] was found to be 56.9 µM; in assay [10], 13 µM.

B14: Peptide-181 (peptide)
peptide: PELRCVPFWMCSFN
modifications: cysteine pairing not given here; also: biotinylated (site not given here)
notes: PSMA peptide mask (P2)
For B14, the figures for the IC50 in assay [1] and in assay [2] were 11.2 µM and 26.1 µM, respectively.

B15: Phage-4010 (peptide, not shown: large carriers)
peptide: FEVRCVPTWMCAGQ
notes: as for B6
Consider B15, for which the results for the “phage binding ELISA signal” value in assay [7] and in assay [8] were 0.427 and 0.069, respectively.

B16: Peptide-41 (peptide)
peptide: MDWCPRDLWVHCFA
For B16, the IC50 in assay [12] was 61.5 µM; in [13] it was > 100 µM.

B17: Peptide-85 (peptide)
peptide: WCWDYKLWVPMTCP
B17: the half-maximal inhibitory concentration (IC50) in [12] and in assay [13] was > 100 µM throughout.

B18: Peptide-87 (peptide)
peptide: YCAGHAWQYINKCL
For B18, the IC50 in [14] is 9.76 µM; in assay [12], > 100 µM; in [15], 12.6 µM; in [13], 13.8 µM.

B19: Peptide-158 (peptide)
peptide: YECHQGLFHRWCVN
modifications: cysteine pairing not given here; also: biotinylated (site not given here)
notes: PSMA peptide mask (P2)
In turn, B19 had an IC50 in assay [6] of 17.3 µM. That is a double-digit micromolar value.

B20: Peptide-185 (peptide)
peptide: YECHQGLFHRWCVN
modifications: cysteine pairing not given here; also: biotinylated (site not given here)
notes: PSMA peptide mask (P2)
Take B20: in assay [1], the half-maximal inhibitory concentration (IC50) was found to be 23 µM. That is a double-digit micromolar value.

B21: Peptide-175 (peptide)
peptide: HCKFHDYHSWYMCY
modifications: cysteine pairing not given here; also: biotinylated (site not given here)
notes: PSMA peptide mask (P2)
Turning to B21, the IC50 in [6] was determined as 17.8 µM.

B22: Peptide-180 (peptide)
peptide: IAVLCQPNWMCAGF
modifications: cysteine pairing not given here; also: biotinylated (site not given here)
notes: PSMA peptide mask (P2)
B22: the IC50 in assay [1] came out at 4.54 µM; in [2] it was 4.5 µM.

B23: Phage-4011 (peptide, not shown: large carriers)
peptide: GWRQCEPVWMCSGF
notes: as for B6
For the molecule B23, the “phage binding ELISA signal” value worked out at 0.423 in assay [7] and 0.0672 in [8].

B24: Peptide-87 (peptide)
peptide: YCAGHAWQYINKCL
modifications: not fully specified; cysteine pairing not given here; also: biotinylated, site not given here
Consider B24, for which the 50% inhibitory concentration (IC50) in assay [11] was 11 µM and 14.6 µM. Moreover, in [16], binding was put at a Kd of 2.02 µM, the koff was determined as 0.0202 s⁻¹, the kon worked out at 10000 M⁻¹ s⁻¹ and the “t1/2” value was 36 s. In assay [17], this molecule registered an IC50 of 12.6 µM.

B25: Peptide-113 (peptide)
peptide: YCAGHAWQYANKCL
notes: Alanine scan variant of Peptide-87 (I10A)
In the case of B25, in assay [17], the half-maximal inhibitory concentration (IC50) stood at 102 µM.

B26: Peptide-116 (peptide)
peptide: YCAGHAWQYINKCA
notes: Alanine scan variant of Peptide-87 (L14A)
As for B26, the IC50 came to 76.4 µM in assay [11] and 98.6 µM in assay [17].

B27: Peptide-114 (peptide)
peptide: YCAGHAWQYIAKCL
notes: Alanine scan variant of Peptide-87 (N11A)
B27: the IC50 in assay [11] came out at 7.09 µM; in [17], 5.49 µM.

B28: Peptide-111 (peptide)
peptide: YCAGHAWAYINKCL
notes: Alanine scan variant of Peptide-87 (Q8A)
B28: the IC50 in [11] is 10.5 µM; in assay [17] it was 12.3 µM.

B29: Peptide-110 (peptide)
peptide: YCAGHAAQYINKCL
notes: Alanine scan variant of Peptide-87 (W7A)
Regarding B29, the IC50 in assay [11] stood at 1.91 µM; in assay [17] it was 3.16 µM.

B30: Peptide-84 (peptide)
peptide: YCAGHSPINIGKCL
Take B30: the IC50 in assay [12] is > 100 µM; in assay [13], 26.8 µM.

B31: Peptide-79 (peptide)
peptide: ACDTYFAGMINECF
Turning to B31, the IC50 in assay [12] and in assay [13] was > 100 µM throughout.

B32: Peptide-9 (peptide)
peptide: MDWCPRERWVDCFF
modifications: cysteine pairing not given here; also: biotinylated, site not given here
For B32, in [9], binding was characterised by a dissociation constant (Kd) of 0.377 µM, the koff was 0.0123 s⁻¹ and the kon worked out at 32500 M⁻¹ s⁻¹.
